Drawing on EP2363413A1 (YISSUM RESEARCH DEVELOPMENT COMPANY OF THE HEBREW …, dated 2011), this text covers Kd for 3 molecules.

In general, Kd refers to the constant that tells how readily two partners part at equilibrium.

The target in assay [1] is soluble CD28 (sCD28), human CD28 extracellular domain fused to His6-tagged human IgG1 Fc (human) (UniProt P10747). Description: SPR, format not stated (sCD28 was among the immobilized ligands). Background: In SPR one partner is held on a chip, and binding of the other changes the refractive index at the surface.
Assay [2] deals with staphylococcal enterotoxin B (SEB) (Staphylococcus aureus) (UniProt P01552). Description: SPR (BIAcore 3000, 25°C), SEB immobilized on CM5 chip, sB7-2 injected.
Assay [3] deals with T1, staphylococcal enterotoxin B (SEB) (Staphylococcus aureus, UniProt P01552 28-266).
T1 sequence: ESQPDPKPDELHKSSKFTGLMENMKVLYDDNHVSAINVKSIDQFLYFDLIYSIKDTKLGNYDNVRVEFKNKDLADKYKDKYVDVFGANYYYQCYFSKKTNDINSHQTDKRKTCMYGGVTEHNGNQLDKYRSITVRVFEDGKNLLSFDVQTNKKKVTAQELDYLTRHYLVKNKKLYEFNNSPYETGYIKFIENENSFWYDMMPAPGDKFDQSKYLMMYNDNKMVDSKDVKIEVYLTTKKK
Description: SPR (BIAcore 3000, 25°C), SEB immobilized on CM5 chip, soluble receptor injected.

With “anti-CD28 monoclonal antibody MAB342, clone 37407.111 (R&D Systems)”, in assay [1], the Kd is 2 nM.

In the case of “soluble B7-2 (sB7-2), human B7-2 extracellular domain fused to His6-tagged human IgG1 Fc (from UniProt P42081 20-239) (Fc fusion)”, the dissociation constant (Kd) in assay [2] was 25 nM.

B1: soluble ICOS (sICOS), human ICOS extracellular domain fused to His6-tagged human IgG1 Fc (Fc fusion)
chain (part 1 of 2): EINGSANYEMFIFHNGGVQILCKYPDIVQQFKMQLLKGGQILCDLTKTKGSGNTVSIKSLKFCHSQLSNNSVSFFLYNLDHSHANYYFCNLSIFDPPPFKVTLTGGYLHIYESQLCCQLKF
chain (part 2 of 2): HHHHHH
notes: range 21-141
B1: binding in assay [3] was put at a Kd of 21 nM. That is a double-digit nanomolar value.
